Data as given in patent US20180009892A1.

Assays:
[1] = target: T1, human ROR1 extracellular domain (ECD) protein (human), Q01973; test: ForteBio Octet, Wnt5a binding to ROR1 in the presence of antibody 601-3-16
[2] = target: T1, human ROR1 extracellular domain (ECD) …; test: ForteBio Octet, Wnt5a binding to ROR1 in the presence of the control mAb
[3] = target: T1, human ROR1 extracellular domain (ECD) …; test: ForteBio Octet, Wnt5a binding to ROR1 in the presence of antibody 601-3-2
[4] = target: T1, human ROR1 extracellular domain (ECD) …; test: ForteBio Octet, Wnt5a binding to ROR1 in the presence of antibody 601-3-12

T1 sequence (Q01973 30-406 limits assumed): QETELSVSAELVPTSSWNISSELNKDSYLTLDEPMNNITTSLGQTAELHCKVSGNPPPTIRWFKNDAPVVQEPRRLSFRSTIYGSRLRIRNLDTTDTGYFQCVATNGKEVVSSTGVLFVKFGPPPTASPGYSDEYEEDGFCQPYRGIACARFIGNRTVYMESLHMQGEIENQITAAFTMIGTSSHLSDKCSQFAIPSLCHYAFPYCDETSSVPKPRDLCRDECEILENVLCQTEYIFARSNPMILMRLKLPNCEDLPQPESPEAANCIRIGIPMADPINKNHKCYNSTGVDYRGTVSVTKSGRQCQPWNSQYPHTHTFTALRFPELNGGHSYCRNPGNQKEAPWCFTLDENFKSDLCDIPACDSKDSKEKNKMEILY

Pesudo ka [1]: 6700 M⁻¹ s⁻¹ | Pesudo ka [2]: 21000 M⁻¹ s⁻¹ | Pesudo ka [3]: 13000 M⁻¹ s⁻¹ | Pesudo ka [4]: 5300 M⁻¹ s⁻¹
B1: Wnt5a, P41221 62-380 (ligand, UniProt P41221 62-380, looked up)
chain: IIGAQPLCSQLAGLSQGQKKLCHLYQDHMQYIGEGAKTGIKECQYQFRHRRWNCSTVDNTSVFGRVMQIGSRETAFTYAVSAAGVVNAMSRACREGELSTCGCSRAARPKDLPRDWLWGGCGDNIDYGYRFAKEFVDARERERIHAKGSYESARILMNLHNNEAGRRTVYNLADVACKCHGVSGSCSLKTCWLQLADFRKVGDALKEKYDSAAAMRLNSRGKLVQVNSRFNSPTTQDLVYIDPSPDYCVRNESTGSLGTQGRLCNKTSEGMDGCELMCCGRGYDQFKTVQTERCHCKFHWCCYVKCKKCTEIVDQFVCK
